Consider 1 molecule from patent US20230348614A1 (VISTERRA, published 2023).

Primed or numbered codes have the meaning given here. The star is where a group is joined. dPEG8″ = dPEG8: discrete polyethylene glycol-8 linker (between N-terminal biotin and the peptide); dPEG8 = discrete polyethylene glycol-8 linker (long chain); Biotin = O=C1N[C@H]2[C@H](CS[C@H]2CCCCC(=O)*)N1

One assay has as its target T1, Peptide 2D (human).
T1 construct: Chemically synthesized human CD138 peptide, 15 residues
T1 peptide: {Biotin-dPEG8″}-GEAVVLPEVEPGLTA-OH
Kind of assay: BLI (Octet): biotinylated peptide (50 nM) on streptavidin sensors, mAb 4320 in solution, PBS pH 7.4; qualitative score.

The next assay deals with T2, Peptide 138-6-1 (human).
T2 construct: Chemically synthesized human CD138 peptide, 8 residues
T2 peptide: {Biotin-dPEG8}-VVAVEPDR-OH
Description: BLI (Octet): biotinylated peptide (50 nM) loaded on streptavidin SA biosensors, mAb 4320 in solution, 300 s association then dissociation, PBS pH 7.4 with 0.02% Tween-20.

Another assay deals with T3, Peptide 6 (human, N-terminal biotin through a long chain (dPEG8) linker (Biot-LC-); C-terminal -OH).
T3 construct: Chemically synthesized human CD138 peptide, 41 residues; also called Pep6
T3 peptide: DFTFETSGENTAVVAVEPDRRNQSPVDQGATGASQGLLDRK
The description is as above.

For the next assay, the target named is T4, Peptide 6F (human).
T4 construct: Chemically synthesized human CD138 peptide, 15 residues
T4 peptide: {Biotin-dPEG8″}-ENTAVVAVEPDRRNQ-OH
The description is as above.

In a further assay the target is T5, Peptide 2C (human, N-terminal biotin through a long chain (dPEG8) linker (Biot-LC-); C-terminal -OH).
T5 construct: Chemically synthesized human CD138 peptide, 20 residues
T5 peptide: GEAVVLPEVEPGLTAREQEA
The assay is described as above.

The next assay has as its target T6, Peptide 6B (human, N-terminal biotin through a long chain (dPEG8) linker (Biot-LC-); C-terminal -OH).
T6 construct: Chemically synthesized human CD138 peptide, 33 residues
T6 peptide: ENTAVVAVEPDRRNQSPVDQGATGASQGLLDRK
The assay is described as above.

For a further assay, the target named is T7, Peptide 2A (human, N-terminal biotin through a long chain (dPEG8) linker (Biot-LC-); C-terminal -OH).
T7 construct: Chemically synthesized human CD138 peptide, 34 residues; also called Pep2a
T7 peptide: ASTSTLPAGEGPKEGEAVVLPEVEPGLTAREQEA
The assay is described as above.

Assay [1] concerns the target T8, Recombinant soluble human CD138 extracellular domain (analyte in SPR) (human, UniProt P18827 23-254).
T8 construct: extracellular domain; also called recombinant CD138 (the antigen)
T8 sequence (looked up): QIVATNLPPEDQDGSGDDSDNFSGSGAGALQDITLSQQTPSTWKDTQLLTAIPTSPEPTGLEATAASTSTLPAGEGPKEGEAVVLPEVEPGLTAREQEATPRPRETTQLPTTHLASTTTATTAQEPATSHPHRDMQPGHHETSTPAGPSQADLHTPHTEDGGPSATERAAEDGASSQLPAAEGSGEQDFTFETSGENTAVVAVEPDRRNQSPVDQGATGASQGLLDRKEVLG
Kind of assay: SPR (Carterra LSA): antibody captured by anti-human IgG, CD138 as analyte, pH 7.4, 1:1 fit. An excerpt: This method as described, immobilizes the target (recombinant CD138) through biotinylation-streptavidin capture. Such a method may, in principle, lead to biases in binding due to either chemical modification of the capture ligand and/or avidity effects due to immobilization of this ligand on the biosensor. Moreover, this method depends on diffusion-based principles of dissociation leading to non-equilibrium binding states. Surface plasmon resonance is an orthogonal, commonly used method for determining binding kinetics and deriving affinity values based on these parameters. In this method, antibodies were directly coupled to the sensor chip and probed with several concentrations of recombinant CD138 (the antigen) varying from 100 nM to 41 nM. This evaluation was completed under two different pH conditions, i.e., pH 6.0 and pH […].
Antibody-CD138 binding was evaluated on a Carterra LSA high throughput SPR instrument. Binding experiments were carried out using binding buffer comprising 100 mM sodium phosphate, 150 mM NaCl and 0.05% Tween-20 buffer. Buffers were adjusted to target pH of 7.4 and 6.0, by use of sodium hydroxide or HCL, respectively. All steps were also carried out independently at these respective buffer pHs. Antibodies were captured on the SPR (CMDP) chip using an anti-human IgG covalently coupled to the CMDP chip based on standard protocols, as described by the instrument manufacturer, and to create a uniform lawn on the chip surface at a target 25 nM anti-CD138 antibody concentration. Binding to CD138 was achieved by uniformly passing binding analyte with increasing concentrations of CD138 (41 nM-100 nM) for 15 minutes and allowing dissociation for 20 minutes. Analyte was flowed over the chip at a rate of 2 milliliters/minute. Raw binding data were processed using kinetics data analysis software also provided by the manufacturer (Carterra) following as 2X background subtraction that used the first six injections of buffer blanks and the internal machine reference controls. Kinetic data was analysed using a global fit and assuming a 1:1 binding interaction. Further analysis of individual binding curves (sensorgrams) with best fits were used to refine the calculation of kinetic parameters.

A further assay deals with T9, Peptide 138-2-1 (human).
T9 construct: Chemically synthesized human CD138 peptide, 8 residues
T9 peptide: {Biotin-dPEG8}-VLPEVEPG-OH
Kind of assay: BLI (Octet): biotinylated peptide (50 nM) loaded on streptavidin SA biosensors, mAb 4320 in solution, PBS pH 7.4 with 0.02% Tween-20.

The next assay concerns the target T10, Peptide 138-2-3 (human).
T10 construct: Chemically synthesized human CD138 peptide, 8 residues
T10 peptide: {Biotin-dPEG8}-PEVEPGLT-OH
Described as above.

For another assay, the target named is T11, Peptide 138-2-2 (human).
T11 construct: Chemically synthesized human CD138 peptide, 7 residues
T11 peptide: {Biotin-dPEG8}-LPEVEPG-OH
The assay is described as above.

B1: mAb 4320 (parental humanized anti-CD138 antibody) (antibody, human IgG1, kappa, V domains shown)
VH: QVQLVQSGAEVKKPGASVKVSCKASGYSFSSYYMHWVRQAPGQGLEWMGTIHPSDSTTNYNQKFQGRVTMTVDTSTRTAYMELSSLRSEDTAVYYCANFVYWGQGTTVTVSS
VL: DIVMTQTPLSLSVTPGQPASISCKSSKSLLYKDGKTYLNWFLQKPGQSPQLLIYVVSTRASGVPDRFSGSGSGTDFTLKISRVEAEDVGVYYCQQLVEYPYTFGQGTKLEIKR
notes: Full-length IgG; heavy constant region human gamma 1 (m3 allotype), light chain kappa constant*01
In the case of B1, the binding result with Peptide 2D, in the assay with Peptide 138-6-1, with Peptide 6, with Peptide 6F, with Peptide 2C and with Peptide 6B was “binds” throughout. In addition, the binding result with Peptide 2A is on record as “binds”; with Peptide 138-2-1, “no binding”; in the assay with Peptide 138-2-3, “no binding”; with Peptide 138-2-2, “no binding”. Also, the Kd in [1] is 0.2 nM. Moreover, the off-rate (koff) in assay [1] amounted to 8.5e-05 s⁻¹. Also, the kon in assay [1] is 370000 M⁻¹ s⁻¹.
